The results in this text go back to PMC8781954, “High-Efficiency Expression and Purification of DNAJB6b Based on the pH-Modulation of Solubility and Denaturant-Modulation of Size” (Molecules, 2022).

This test addresses T1, DNAJB6b wt (human, UniProt O75190-2 1-241).
T1 construct: DNAJB6b, human, the 241-residue b isoform of DNAJB6; No tags; also called wt DNAJB6b; unlabelled DNAJB6b
Kind of test: native gel or EMSA; agarose gel imaged on an IR fluorescence scanner; 5 nM DNAJB6b-CCys-IR680 mixed with unlabelled DNAJB6b-wt to total concentrations of 5 nM to 32 µM. The note with it: both partners purified.

T1 sequence (O75190 other isoform, or with tags, fused parts or gaps): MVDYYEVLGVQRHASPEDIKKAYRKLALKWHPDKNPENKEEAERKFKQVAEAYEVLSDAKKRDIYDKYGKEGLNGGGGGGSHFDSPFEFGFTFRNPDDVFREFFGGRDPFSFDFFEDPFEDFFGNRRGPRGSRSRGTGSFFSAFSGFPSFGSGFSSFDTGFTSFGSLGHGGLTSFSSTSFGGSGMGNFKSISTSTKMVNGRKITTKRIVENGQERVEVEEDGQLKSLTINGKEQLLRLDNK

B1: DNAJB6b-CCys-IR680 (natural protein)
chain: not shown
modifications: IRdye-680 (maleimide dye) on the engineered C-terminal cysteine
notes: DNAJB6b, human, the 241-residue b isoform of DNAJB6, no tags; a cysteine residue added at the C-terminus (variant CCys); also called IR680-labelled DBAJB6b; DNAJB6-CCys labelled with IRdye680; source: E. coli BL21 DE3 pLysS star, purified as wt with 1 mM DTT in all buffers; labelled with IRdye680 maleimide, free dye removed by SEC
With B1, the binding result is “binds”.
